In this data set the target is tau 4R2N (Homo sapiens, UniProt P10636-8 1-441). Nature of the data set: EMSA; Hill coefficient 2.6; EMSA: 100 mM sodium acetate pH 7.0, 0.5 mM EDTA, 0.5 mM MgCl2, 0.01% IGEPAL CA-630, RNase inhibitor, 37 C 10 min, TBE 8% gel; ITC: 20 mM ammonium acetate pH 7. The note with it: protein: recombinant; chain copies: 2; label: 3' biotin kit RNA. (In general: In EMSA bound probe runs differently from free probe, usually more slowly.)

The record followed here is PMC5500003, “RNA stores tau reversibly in complex coacervates”.

The term Kd denotes a measure of binding affinity in units of concentration.

Sequence of tau 4R2N (P10636 other isoform, or with tags, fused parts or gaps): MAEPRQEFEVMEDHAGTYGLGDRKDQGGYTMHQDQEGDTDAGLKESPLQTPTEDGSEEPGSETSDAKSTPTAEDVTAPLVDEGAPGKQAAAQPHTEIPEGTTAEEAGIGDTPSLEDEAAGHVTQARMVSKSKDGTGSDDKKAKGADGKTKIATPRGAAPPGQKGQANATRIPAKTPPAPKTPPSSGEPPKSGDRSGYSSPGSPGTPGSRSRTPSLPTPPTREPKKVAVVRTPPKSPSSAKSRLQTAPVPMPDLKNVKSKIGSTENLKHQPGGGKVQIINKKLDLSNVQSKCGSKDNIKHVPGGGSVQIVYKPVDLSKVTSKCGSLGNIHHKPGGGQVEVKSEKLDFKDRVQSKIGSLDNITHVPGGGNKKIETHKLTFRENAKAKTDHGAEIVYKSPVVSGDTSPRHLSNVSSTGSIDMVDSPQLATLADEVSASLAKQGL

Turning to CCUGGUUUUUAAGGAGUGUCGCCAGAGUGCCGCGAAUGAAAAA (ssRNA) [RNA43], the equilibrium dissociation constant (Kd) came to 832 ± 94 nM.
